According to IntAct's records for PubMed 17997972:

B1: Nuclear distribution protein nudE-like 1 (Homo sapiens), Q9GZM8 (parent)
chain: MDGEDIPDFSSLKEETAYWKELSLKYKQSFQEARDELVEFQEGSRELEAELEAQLVQAEQRNRDLQADNQRLKYEVEALKEKLEHQYAQSYKQVSVLEDDLSQTRAIKEQLHKYVRELEQANDDLERAKRATIVSLEDFEQRLNQAIERNAFLESELDEKESLLVSVQRLKDEARDLRQELAVRERQQEVTRKSAPSSPTLDCEKMDSAVQASLSLPATPVGKGTENTFPSPKAIPNGFGTSPLTPSARISALNIVGDLLRKVGALESKLAACRNFAKDQASRKSYISGNVNCGVLNGNGTKFSRSGHTSFFDKGAVNGFDPAPPPPGLGSSRPSSAPGMLPLSV
partner: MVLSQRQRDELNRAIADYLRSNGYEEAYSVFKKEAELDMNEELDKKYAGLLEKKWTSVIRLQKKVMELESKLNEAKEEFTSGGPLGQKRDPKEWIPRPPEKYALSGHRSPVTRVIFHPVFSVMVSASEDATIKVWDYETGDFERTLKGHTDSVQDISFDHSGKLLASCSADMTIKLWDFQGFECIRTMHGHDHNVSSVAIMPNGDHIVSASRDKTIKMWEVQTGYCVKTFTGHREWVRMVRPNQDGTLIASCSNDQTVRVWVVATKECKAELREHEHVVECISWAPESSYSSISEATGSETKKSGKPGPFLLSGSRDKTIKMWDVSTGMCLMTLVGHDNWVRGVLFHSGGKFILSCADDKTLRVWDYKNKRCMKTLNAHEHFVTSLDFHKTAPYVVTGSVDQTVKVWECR

Variants of: B1
Conditions: with lis1_mouse Pafah1b1, P63005

Variant | effect of a mutation on the interaction
MDGEDIPDFSSLKEETAYWKELSLKYKQSFQEARDELVEFQEGSRELEAELEAQLVQAEQRNRDLQADNQRLKYEVEALKEKLEHQYAQSYKQVSVLEDDLSQTRAIKEQLHKYVRELAQANDDLERAKRATIVSLEDFEQRLNQAIERNAFLESELDEKESLLVSVQRLKDEARDLRQELAVRERQQEVTRKSAPSSPTLDCEKMDSAVQASLSLPATPVGKGTENTFPSPKAIPNGFGTSPLTPSARISALNIVGDLLRKVGALESKLAACRNFAKDQASRKSYISGNVNCGVLNGNGTKFSRSGHTSFFDKGAVNGFDPAPPPPGLGSSRPSSAPGMLPLSV [E119A] | disrupting interaction
MDGEDIPDFSSLKEETAYWKELSLKYKQSFQEARDELVEFQEGSRELEAELEAQLVQAEQRNRDLQADNQRLKYEVEALKEKLEHQYAQSYKQVSVLEDDLSQTRAIKEQLHKYVRELEQANDDLERAKAATIVSLEDFEQRLNQAIERNAFLESELDEKESLLVSVQRLKDEARDLRQELAVRERQQEVTRKSAPSSPTLDCEKMDSAVQASLSLPATPVGKGTENTFPSPKAIPNGFGTSPLTPSARISALNIVGDLLRKVGALESKLAACRNFAKDQASRKSYISGNVNCGVLNGNGTKFSRSGHTSFFDKGAVNGFDPAPPPPGLGSSRPSSAPGMLPLSV [R130A] | disrupting interaction
